Laboratory results from US20240376227A1 (published 2024).

What was measured:
[1] = molecular target: T1, endogenous CK2α protein (UniProt P68400 1-391); assay: Western blotting after immunoprecipitation, MCF-7 and Flag-CK2α-expressing HEK293 cells
T1 construct: Native protein in cell lysates, chromatin fractions or fixed tissue sections of human origin; also called cellular endogenous CK2α protein; CK2α protein localized to the nucleolus
Procedure: A lysate was prepared from a breast cancer cell line MCF-7 (JCRB cell bank, #JCRB0134) and Flag-CK2α protein-expressing HEK293 cells. The MCF-7 cell line or Flag-CK2α-protein-expressing HEK293 cells were cultured, and washed with PBS, and then collected from the plate. A soluble fraction was partially purified from the cell lysate in accordance with common methods, and the anti-CK2α antibody (1 μg of six antibodies of the present invention or the control antibody) was added. Then, mixing was performed mildly at 4° C. for two hours, and then, Protein G-agarose beads were added, and a CK2α immune complex was formed. Then, the immunoprecipitates obtained by centrifugation were treated with SDS, and then electrophoresed. In Western blotting, the antibody of the present invention or the control antibody was used at 0.1 μg/mL.
The Western blotting performed with the control antibody detected, in the MCF-7 cell line, a band of the endogenous CK2α and in addition, a nonspecific band equal to or stronger than the band, and also detected, in the Flag-CK2α protein-expressing HEK293 cells, bands of the endogenous CK2α and Flag-CK2α, and in addition, a nonspecific band equal to or stronger than the bands.

[2] = molecular target: T2, recombinant human CK2α protein (human, UniProt P68400 1-391); assay: Western blotting on 0.05, 0.1 or 0.2 µg purified recombinant protein, antibody at 0.1 µg/mL
T2 construct: also called recombinant CK2α protein; Casein kinase 2 alpha 1
Procedure: Using mAb (6A3), mAb (10B2), mAb (15C1), mAb (16C2), mAb (19C2), and mAb (21B1) of the present invention, a purified product of recombinant CK2α protein was detected by Western blotting. The recombinant CK2α protein obtained by purifying the human-derived CK2α protein expressed by introducing the pGEX2T-CK2α gene in E. coli was used. The recombinant CK2α protein in an amount of 0.05 μg, 0.1 μg, or 0.2 μg was treated with SDS, electrophoresed, and was subjected to detection with six antibodies of the present invention at 0.1 μg/mL.

T1 sequence (P68400 whole entry): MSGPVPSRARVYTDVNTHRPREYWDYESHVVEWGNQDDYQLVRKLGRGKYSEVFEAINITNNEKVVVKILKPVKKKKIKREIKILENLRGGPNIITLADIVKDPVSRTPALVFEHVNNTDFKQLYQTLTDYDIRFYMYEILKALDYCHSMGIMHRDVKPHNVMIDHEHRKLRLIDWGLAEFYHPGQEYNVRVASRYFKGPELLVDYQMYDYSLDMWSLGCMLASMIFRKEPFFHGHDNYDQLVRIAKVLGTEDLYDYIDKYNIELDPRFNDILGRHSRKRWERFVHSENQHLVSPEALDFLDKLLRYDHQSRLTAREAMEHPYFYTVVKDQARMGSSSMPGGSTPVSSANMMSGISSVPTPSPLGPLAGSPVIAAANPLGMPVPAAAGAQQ
T2 sequence (P68400 whole entry): as above

| binding result [1] | binding result [2] | Binder |
| --- | --- | --- |
| binds | binds | mouse anti-CK2α monoclonal antibody clone 10B2, mAb (10B2) (antibody, mouse IgG2b, V domains shown, As printed they appear to include a leader and the first constant region residues) VH: QVQLQQSGAELVRPGASVTLSCKASGYTFTDYQMHWVKQTPVHGLEWIGVIDPGTGGTAYNQKFKGKAILTADKSSNTAYMELRSLTSEDSAVYYCTGFVWGTGSPVTVSS VL: DIQMTQSPSSLSASLGERVSLTCRASQDIGNNLNWLQQEPDGTIKRLIYATSSLDSGVPKRFTGSRSGSDYSLTISSLESEDFVDYYCLQYAIFPYTFGGGTKLEIKR |
| binds | binds | mouse anti-CK2α monoclonal antibody clone 16C2, mAb (16C2) (antibody, mouse IgG2b, V domains shown, As printed they appear to include a leader and the first constant region residues) VH: QVQLQQSGAELVRPGASVTLSCKASGYKFTDYQMHWVKQTPVHGLEWIGVLDPGTGGTAYNQKFRGKAILTADKSSSTAYMELRSLTSEDSAVYYCTGFVWGTGTTVTVSS VL: DIQMTQSPSSLSASLGERVSLTCRASQDIGSSLNWLQQEPDGTIKRLIYATSSLDSGVPKRFSGSRSGSDYSLTISSLESEDFVDYYCLQYAIFPYTFGGGTKLEIKR |
| binds | binds | mouse anti-CK2α monoclonal antibody clone 15C1, mAb (15C1) (antibody, mouse IgG2b, V domains shown, As printed they appear to include a leader and the first constant region residues) VH: QVQLQQSGAELVRPGASVTLSCKASGYTFTDFQMHWVKQTPVHGLEWIGVIDPGTGGTAYNQKFKDKAILTADKSSNTAYMELRSLTSEDSAVYYCTGFVWGTGTTVTVSS VL: DIQMTQSPSSLSASLGERVSLTCRASQDIGNNLNWLQQEPDGTIKRLIYATSSLDSGVPKRFTGSRSGSDYSLTISSLESEDFVDYYCLQYAIFPYTFGGGTKLEIKR |
